Target: 重组HSP90蛋白 (recombinant HSP90 protein expressed in E. coli BL21 from pET-30a-HSP90) (human) (UniProt P08238)
Experiment: indirect ELISA, HSP90 recombinant protein coated at 1 μg/mL, antibody diluted 1:10^3 to 1:10^6, HRP goat anti-mouse

- 效价 (ELISA titer, dilution factor) (dilution factor): 100000
B1: 抗HSP90单克隆抗体 46-2-C9 (anti-HSP90 monoclonal antibody from hybridoma 46-2-C9, purified from mouse ascites) (antibody, V domains shown)
VH: EVQLQQSGPELVKPGASVKISCKASGYSFTGYYMHWVKQSHVKSLEWIGRINPYNGATSYNQNFKDKASLTVDKSSSTAYMELHSLTSEDSAVYYCARSKKYGNYTWFAYWGQGTLVTVSA
VL: DVQMTQSQKFMSTSVGDRVSVTCKASQNVGTNVAWYQQKPGQSPKALIYSASYRYSGVPDRFTGSGSGTDFTLTISNVQSEDLAEYFCQQYNSYIFTFGSGTKLEIKR
